From paper PMC4108476

Target: T1, [2Fe-2S]-IscR wild type (Escherichia coli, UniProt P0AGK8 1-162)
T1 sequence: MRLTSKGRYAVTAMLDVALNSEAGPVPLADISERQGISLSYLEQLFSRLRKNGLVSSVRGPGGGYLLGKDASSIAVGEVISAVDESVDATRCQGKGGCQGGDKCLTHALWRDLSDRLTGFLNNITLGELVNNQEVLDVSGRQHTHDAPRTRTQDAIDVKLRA
Test: fluorescence anisotropy

B1: PiscR site B 30-mer (dsDNA)
DNA 1: AAATAGTTGACCAATTTACTCGGGAATGTC
DNA 2: GACATTCCCGAGTAAATTGGTCAACTATTT
Kd: 112 ± 2 nM
